Experimental data: patent publication US20220332795A1 (ARO BIOTHERAPEUTICS, published 2022)
Changes are numbered by the printed parent chain.

B1: SEQ ID NO 168 (designed binder)
chain: MLPAPKNLVVSRVTEDSARLSWTAPDAAFDSFYIAYAEPRPDGEAILLDVPGSERSYDLTGLKPGTEYSVLIHGVKGGLLSSPLSAIFTT
notes: FN3 domain
B2: SEQ ID NO 124 (designed binder)
chain: B1 chain with L47Q, D49H, S85L, I87S
notes: FN3 domain
B3: SEQ ID NO 106 (designed binder)
chain: B1 chain with S85Y, I87S
notes: FN3 domain
B4: SEQ ID NO 152 (designed binder)
chain: B1 chain with L47T, S85Y, I87F
notes: FN3 domain
B5: SEQ ID NO 105 (designed binder)
chain: B1 chain with L47F, D49V, S85H, I87N
notes: FN3 domain
B6: SEQ ID NO 118 (designed binder)
chain: B1 chain with L47W, D49V, S85V, I87S
notes: FN3 domain
B7: SEQ ID NO 129 (designed binder)
chain: B1 chain with L47N, D49W, S85D, I87S
notes: FN3 domain
B8: SEQ ID NO 119 (designed binder)
chain: B1 chain with L47N, S85V, I87E
notes: FN3 domain
B9: SEQ ID NO 153 (designed binder)
chain: B1 chain with L47A, D49H
notes: FN3 domain
B10: SEQ ID NO 117 (designed binder)
chain: B1 chain with L47T
notes: FN3 domain
B11: SEQ ID NO 147 (designed binder)
chain: B1 chain with L47V, D49E, S85D, I87H
notes: FN3 domain
B12: SEQ ID NO 116 (designed binder)
chain: B1 chain with L47Q, D49V
notes: FN3 domain
B13: SEQ ID NO 127 (designed binder)
chain: B1 chain with L47F, D49G
notes: FN3 domain
B14: SEQ ID NO 150 (designed binder)
chain: B1 chain with W22R, L47V, D49I
notes: FN3 domain
B15: SEQ ID NO 132 (designed binder)
chain: B1 chain with Y33F, A35P, R40S, D42T, L47V, D49T, I87H
notes: FN3 domain
B16: SEQ ID NO 144 (designed binder)
chain: B1 chain with L47G, D49Y, S85G, I87F
notes: FN3 domain
B17: SEQ ID NO 148 (designed binder)
chain: B1 chain with L47A, D49H, S85R, I87V
notes: FN3 domain
B18: SEQ ID NO 137 (designed binder)
chain: B1 chain with L47V, S85V, I87E
notes: FN3 domain
B19: SEQ ID NO 104 (designed binder)
chain: B1 chain with L47S, D49L, S85Y, I87V
notes: FN3 domain
B20: SEQ ID NO 146 (designed binder)
chain: B1 chain with L47T, D49H
notes: FN3 domain
B21: SEQ ID NO 154 (designed binder)
chain: B1 chain with L47G, D49W, S85I, I87H
notes: FN3 domain
B22: SEQ ID NO 120 (designed binder)
chain: B1 chain with L47H, D49S, S85V
notes: FN3 domain
B23: SEQ ID NO 135 (designed binder)
chain: B1 chain with L47Q, D49A, S85H, I87F
notes: FN3 domain
B24: SEQ ID NO 131 (designed binder)
chain: B1 chain with L47H, D49W, S85I, I87H
notes: FN3 domain
B25: SEQ ID NO 122 (designed binder)
chain: B1 chain with L47I, D49V, I87H
notes: FN3 domain
B26: SEQ ID NO 133 (designed binder)
chain: B1 chain with L47Y, D49Y, S85D, I87F
notes: FN3 domain
B27: SEQ ID NO 155 (designed binder)
chain: B1 chain with L47W, D49V, S85H, I87R
notes: FN3 domain
B28: SEQ ID NO 125 (designed binder)
chain: B1 chain with L47A, D49H, S85V, I87F
notes: FN3 domain
B29: SEQ ID NO 113 (designed binder)
chain: B1 chain with L47N, D49Q, S85V, I87F
notes: FN3 domain
B30: SEQ ID NO 112 (designed binder)
chain: B1 chain with D49L
notes: FN3 domain
B31: SEQ ID NO 141 (designed binder)
chain: B1 chain with L47F, D49G, S85I, I87F
notes: FN3 domain
B32: SEQ ID NO 149 (designed binder)
chain: B1 chain with L47Q, D49W
notes: FN3 domain
B33: SEQ ID NO 128 (designed binder)
chain: B1 chain with L47V, D49R, S85I, I87S
notes: FN3 domain
B34: SEQ ID NO 134 (designed binder)
chain: B1 chain with L47G, D49Q
notes: FN3 domain
B35: SEQ ID NO 145 (designed binder)
chain: B1 chain with D49Q, S85T
notes: FN3 domain
B36: SEQ ID NO 138 (designed binder)
chain: B1 chain with A4T, L47Q, D49R, S85H, I87S
notes: FN3 domain
B37: SEQ ID NO 143 (designed binder)
chain: B1 chain with D49F, S85V, I87H
notes: FN3 domain
B38: SEQ ID NO 103 (designed binder)
chain: MLPAPKNLVVSRVTEDSARLSWTAPDAAFDSFHIVYHEPRPSGEAIWLHVPGSERSYDLTGLKPGTEYEVGIVSVKGGDLSVPLVAFFTT
notes: FN3 domain

What follows are binders tested against T1, recombinant biotinylated human CD71 extracellular domain (human, UniProt P02786 89-760, biotinylated) (assay: solution ELISA).
T1 construct: extracellular domain; also called hCD71; huCD71 ECD
T1 sequence (P02786 other isoform, or with tags, fused parts or gaps): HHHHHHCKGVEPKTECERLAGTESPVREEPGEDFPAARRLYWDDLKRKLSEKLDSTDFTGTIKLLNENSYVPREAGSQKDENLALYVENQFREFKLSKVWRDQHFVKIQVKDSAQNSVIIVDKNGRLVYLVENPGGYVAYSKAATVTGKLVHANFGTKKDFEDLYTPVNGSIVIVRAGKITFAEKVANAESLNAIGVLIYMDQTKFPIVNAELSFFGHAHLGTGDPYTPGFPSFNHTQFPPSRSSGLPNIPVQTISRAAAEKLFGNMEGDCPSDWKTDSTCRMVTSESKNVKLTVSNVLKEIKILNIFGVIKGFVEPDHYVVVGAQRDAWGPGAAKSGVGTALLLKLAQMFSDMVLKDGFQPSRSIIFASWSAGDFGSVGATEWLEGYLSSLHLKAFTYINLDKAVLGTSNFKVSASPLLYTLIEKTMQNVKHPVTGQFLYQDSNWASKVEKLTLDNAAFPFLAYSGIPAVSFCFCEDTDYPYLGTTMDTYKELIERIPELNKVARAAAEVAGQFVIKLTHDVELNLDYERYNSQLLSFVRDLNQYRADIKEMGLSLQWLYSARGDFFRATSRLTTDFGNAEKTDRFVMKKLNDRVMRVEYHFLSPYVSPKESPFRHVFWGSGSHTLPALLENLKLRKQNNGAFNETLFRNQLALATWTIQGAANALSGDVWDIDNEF

| hCD71, RLU [RLU] | Binder |
| --- | --- |
| 3.97e+06 | B1 |
| 1.54e+06 | B2 |
| 4.97e+06 | B3 |
| 764000 | B4 |
| 2.43e+06 | B5 |
| 1.73e+06 | B6 |
| 219000 | B7 |
| 1.25e+06 | B8 |
| 339000 | B9 |
| 1.3e+06 | B10 |
| 2.94e+06 | B11 |
| 428000 | B12 |
| 1.41e+06 | B13 |
| 1.3e+06 | B14 |
| 1.78e+06 | B15 |
| 516000 | B16 |
| 290000 | B17 |
| 5.11e+06 | B18 |
| 947000 | B19 |

| hCD71, RLU [RLU] | Binder |
| --- | --- |
| 1.08e+06 | B20 |
| 779000 | B21 |
| 501000 | B22 |
| 967000 | B23 |
| 203000 | B24 |
| 4.77e+06 | B25 |
| 1.04e+06 | B26 |
| 513000 | B27 |
| 1.23e+06 | B28 |
| 1.27e+06 | B29 |
| 4.48e+06 | B30 |
| 965000 | B31 |
| 1.56e+06 | B32 |
| 4.31e+06 | B33 |
| 640000 | B34 |
| 6.2e+06 | B35 |
| 1.08e+06 | B36 |
| 3.25e+06 | B37 |
| 818000 | B38 |

The binders below were run against T2, CD71 apical domain (UniProt P02786 189-383, limits assumed) (assay: solution ELISA).
T2 construct: domain: Apical domain
T2 sequence (P02786 189-383 limits assumed): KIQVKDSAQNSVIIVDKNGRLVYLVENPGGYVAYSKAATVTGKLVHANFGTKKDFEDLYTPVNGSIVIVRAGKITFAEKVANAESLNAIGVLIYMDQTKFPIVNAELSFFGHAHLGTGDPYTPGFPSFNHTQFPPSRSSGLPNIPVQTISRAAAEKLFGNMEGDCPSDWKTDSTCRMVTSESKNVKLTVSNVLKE

| Apical domain, RLU [RLU] | Binder |
| --- | --- |
| 6.86e+06 | B1 |
| 5.46e+06 | B2 |
| 7.37e+06 | B3 |
| 4.96e+06 | B4 |
| 6.79e+06 | B5 |
| 6.58e+06 | B6 |
| 4.18e+06 | B7 |
| 4.93e+06 | B8 |
| 3.96e+06 | B9 |
| 5.36e+06 | B10 |
| 6.89e+06 | B11 |
| 4.93e+06 | B12 |
| 6.24e+06 | B13 |
| 3.16e+06 | B14 |
| 7.43e+06 | B15 |
| 3.91e+06 | B16 |
| 3.41e+06 | B17 |
| 7.87e+06 | B18 |
| 5.9e+06 | B19 |

| Apical domain, RLU [RLU] | Binder |
| --- | --- |
| 5.72e+06 | B20 |
| 5.54e+06 | B21 |
| 5.75e+06 | B22 |
| 6.05e+06 | B23 |
| 5.28e+06 | B24 |
| 8.06e+06 | B25 |
| 4.74e+06 | B26 |
| 4.86e+06 | B27 |
| 5.26e+06 | B28 |
| 5.83e+06 | B29 |
| 7.7e+06 | B30 |
| 4.96e+06 | B31 |
| 6.16e+06 | B32 |
| 7.41e+06 | B33 |
| 5.39e+06 | B34 |
| 8.3e+06 | B35 |
| 5.35e+06 | B36 |
| 7.51e+06 | B37 |
| 4.14e+06 | B38 |

Each binder was assayed against T1, recombinant biotinylated human CD71 … (assay: solution ELISA, signal ratio to HSA).

| hCD71:HSA | Binder |
| --- | --- |
| 271 | B1 |
| 63.1 | B2 |
| 118 | B3 |
| 55.4 | B4 |
| 142 | B5 |
| 120 | B6 |
| 13.8 | B7 |
| 57.6 | B8 |
| 16 | B9 |
| 75.4 | B10 |
| 204 | B11 |
| 37.1 | B12 |
| 66.3 | B13 |
| 12.7 | B14 |
| 43.2 | B15 |
| 30.8 | B16 |
| 21.1 | B17 |
| 268 | B18 |
| 89.8 | B19 |

| hCD71:HSA | Binder |
| --- | --- |
| 63.7 | B20 |
| 33.7 | B21 |
| 42.5 | B22 |
| 42.1 | B23 |
| 10.3 | B24 |
| 351 | B25 |
| 41 | B26 |
| 27.7 | B27 |
| 76.2 | B28 |
| 42.6 | B29 |
| 413 | B30 |
| 37 | B31 |
| 91.2 | B32 |
| 121 | B33 |
| 36.7 | B34 |
| 348 | B35 |
| 74.3 | B36 |
| 157 | B37 |
| 28.2 | B38 |

What follows are binders tested against T2, CD71 apical domain (assay: solution ELISA, signal ratio to HSA).

| apical domain:HSA | Binder |
| --- | --- |
| 468 | B1 |
| 224 | B2 |
| 176 | B3 |
| 359 | B4 |
| 397 | B5 |
| 459 | B6 |
| 264 | B7 |
| 228 | B8 |
| 186 | B9 |
| 312 | B10 |
| 478 | B11 |
| 427 | B12 |
| 292 | B13 |
| 30.8 | B14 |
| 180 | B15 |
| 234 | B16 |
| 248 | B17 |
| 412 | B18 |
| 559 | B19 |

| apical domain:HSA | Binder |
| --- | --- |
| 337 | B20 |
| 239 | B21 |
| 487 | B22 |
| 263 | B23 |
| 269 | B24 |
| 592 | B25 |
| 186 | B26 |
| 263 | B27 |
| 327 | B28 |
| 196 | B29 |
| 709 | B30 |
| 190 | B31 |
| 361 | B32 |
| 209 | B33 |
| 309 | B34 |
| 466 | B35 |
| 369 | B36 |
| 363 | B37 |
| 143 | B38 |
